# Reference: paper PMC6159516 (Nucleic Acids Research, 2018)
# T1: FANCJ-wild type (WT) with a C-terminal FLAG tag (human), Q9BX63
# T1 chain: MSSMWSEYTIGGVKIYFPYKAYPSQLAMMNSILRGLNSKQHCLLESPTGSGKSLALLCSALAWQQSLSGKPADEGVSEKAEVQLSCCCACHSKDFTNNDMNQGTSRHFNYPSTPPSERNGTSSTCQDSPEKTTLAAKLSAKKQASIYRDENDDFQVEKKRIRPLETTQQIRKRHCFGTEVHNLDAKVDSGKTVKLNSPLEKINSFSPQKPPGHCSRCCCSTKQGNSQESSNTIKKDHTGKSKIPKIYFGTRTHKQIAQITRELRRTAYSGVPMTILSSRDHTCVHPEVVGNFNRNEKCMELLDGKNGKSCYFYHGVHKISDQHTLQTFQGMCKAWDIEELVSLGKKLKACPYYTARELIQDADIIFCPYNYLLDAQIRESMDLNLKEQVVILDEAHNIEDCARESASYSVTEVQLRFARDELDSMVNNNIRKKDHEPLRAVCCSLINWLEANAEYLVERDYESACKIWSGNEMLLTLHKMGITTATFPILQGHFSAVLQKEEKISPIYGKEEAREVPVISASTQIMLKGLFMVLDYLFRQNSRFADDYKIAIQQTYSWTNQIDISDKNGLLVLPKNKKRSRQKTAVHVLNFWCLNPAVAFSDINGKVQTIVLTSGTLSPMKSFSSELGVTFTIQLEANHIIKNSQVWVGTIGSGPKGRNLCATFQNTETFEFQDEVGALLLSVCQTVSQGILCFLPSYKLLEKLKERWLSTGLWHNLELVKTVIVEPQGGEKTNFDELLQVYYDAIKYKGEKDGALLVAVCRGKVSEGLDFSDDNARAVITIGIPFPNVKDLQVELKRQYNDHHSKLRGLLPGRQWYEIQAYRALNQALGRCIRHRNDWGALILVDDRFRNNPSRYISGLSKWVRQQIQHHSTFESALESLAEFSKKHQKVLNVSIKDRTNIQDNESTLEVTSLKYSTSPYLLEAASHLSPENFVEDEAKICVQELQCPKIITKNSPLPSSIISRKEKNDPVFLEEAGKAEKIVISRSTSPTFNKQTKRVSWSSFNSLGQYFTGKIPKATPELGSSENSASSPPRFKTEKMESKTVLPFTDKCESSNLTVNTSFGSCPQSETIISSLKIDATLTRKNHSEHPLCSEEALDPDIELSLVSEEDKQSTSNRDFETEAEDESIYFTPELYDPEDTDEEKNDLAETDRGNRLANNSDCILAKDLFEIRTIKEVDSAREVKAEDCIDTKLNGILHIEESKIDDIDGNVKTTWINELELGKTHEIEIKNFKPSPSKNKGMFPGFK
# T2: FANCJ-WT (Homo sapiens, UniProt Q9BX63 1-1249)
# T2 sequence: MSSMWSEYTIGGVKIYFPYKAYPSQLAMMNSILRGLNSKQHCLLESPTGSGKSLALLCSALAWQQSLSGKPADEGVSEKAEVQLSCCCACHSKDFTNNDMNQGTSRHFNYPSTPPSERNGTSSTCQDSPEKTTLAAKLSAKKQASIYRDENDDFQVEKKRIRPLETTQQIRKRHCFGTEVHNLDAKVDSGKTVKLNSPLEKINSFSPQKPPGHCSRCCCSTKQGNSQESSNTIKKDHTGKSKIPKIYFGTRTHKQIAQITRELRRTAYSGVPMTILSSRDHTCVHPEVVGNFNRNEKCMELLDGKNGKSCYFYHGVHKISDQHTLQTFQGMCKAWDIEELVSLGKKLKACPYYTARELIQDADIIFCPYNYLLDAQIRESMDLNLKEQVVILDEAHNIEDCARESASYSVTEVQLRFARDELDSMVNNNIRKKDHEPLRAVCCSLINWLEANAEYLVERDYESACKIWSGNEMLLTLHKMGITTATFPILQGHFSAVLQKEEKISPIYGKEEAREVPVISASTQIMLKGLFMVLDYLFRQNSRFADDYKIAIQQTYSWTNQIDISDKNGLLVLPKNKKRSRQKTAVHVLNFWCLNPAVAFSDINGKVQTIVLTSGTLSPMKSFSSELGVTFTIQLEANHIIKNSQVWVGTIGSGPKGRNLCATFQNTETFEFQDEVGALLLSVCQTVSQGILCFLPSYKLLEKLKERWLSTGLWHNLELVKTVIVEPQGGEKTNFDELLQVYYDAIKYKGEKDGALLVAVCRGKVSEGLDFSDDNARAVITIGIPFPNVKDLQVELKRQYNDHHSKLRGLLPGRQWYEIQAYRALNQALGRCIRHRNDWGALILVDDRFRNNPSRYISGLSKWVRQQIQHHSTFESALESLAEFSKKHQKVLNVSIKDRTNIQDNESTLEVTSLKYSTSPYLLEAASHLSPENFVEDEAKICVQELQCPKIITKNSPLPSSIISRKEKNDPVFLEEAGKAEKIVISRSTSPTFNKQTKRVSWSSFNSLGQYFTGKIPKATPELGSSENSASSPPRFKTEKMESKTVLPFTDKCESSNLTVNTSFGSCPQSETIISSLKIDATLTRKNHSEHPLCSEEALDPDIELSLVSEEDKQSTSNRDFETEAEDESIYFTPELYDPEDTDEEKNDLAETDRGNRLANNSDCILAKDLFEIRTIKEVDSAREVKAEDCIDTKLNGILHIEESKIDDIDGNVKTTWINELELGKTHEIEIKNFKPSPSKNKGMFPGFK
# Assays:
# [1] = molecular target: FANCJ-R707C with a C-terminal FLAG tag (human) (UniProt Q9BX63)
# [2] = molecular target: T1, FANCJ-wild type (WT) with a C-terminal …; test: SEC; purified recombinant FANCJ applied to a Superdex-200 column on an AKTA FPLC, UV detection, calibrated with molecular mass markers; dimer and monomer peaks; details: remark: other sources report otherwise
# [3] = molecular target: the molecule itself; test: as above
# FANCJ-WT = molecular target: T2, FANCJ-WT; test: EMSA; 5 mM Mg2+, no ATP; EMSA: 40 mM Tris-HCl pH 7.4, 25 mM KCl, 5 mM MgCl2, 2 mM DTT, 2% glycerol, 100 ng/ul BSA, no ATP, 0.5 nM DNA, 24 C 30 min; native 5% PAGE in 1x TBE at 4 C
molecule,measurement,setting,value
RPA (complex),"percent of 34 bp forked duplex DNA substrate (0.5 nM) unwound by FANCJ-R707C (20 nM) with increasing RPA, up to 8 nM, 30°C, 15 min (stimulation of helicase activity by RPA)",[1],45%
"FANCJ-wild type (WT) with a C-terminal FLAG tag, Q9BX63 1-1249 (enzyme) MSSMWSEYTIGGVKIYFPYKAYPSQLAMMNSILRGLNSKQHCLLESPTGSGKSLALLCSALAWQQSLSGKPADEGVSEKAEVQLSCCCACHSKDFTNNDMNQGTSRHFNYPSTPPSERNGTSSTCQDSPEKTTLAAKLSAKKQASIYRDENDDFQVEKKRIRPLETTQQIRKRHCFGTEVHNLDAKVDSGKTVKLNSPLEKINSFSPQKPPGHCSRCCCSTKQGNSQESSNTIKKDHTGKSKIPKIYFGTRTHKQIAQITRELRRTAYSGVPMTILSSRDHTCVHPEVVGNFNRNEKCMELLDGKNGKSCYFYHGVHKISDQHTLQTFQGMCKAWDIEELVSLGKKLKACPYYTARELIQDADIIFCPYNYLLDAQIRESMDLNLKEQVVILDEAHNIEDCARESASYSVTEVQLRFARDELDSMVNNNIRKKDHEPLRAVCCSLINWLEANAEYLVERDYESACKIWSGNEMLLTLHKMGITTATFPILQGHFSAVLQKEEKISPIYGKEEAREVPVISASTQIMLKGLFMVLDYLFRQNSRFADDYKIAIQQTYSWTNQIDISDKNGLLVLPKNKKRSRQKTAVHVLNFWCLNPAVAFSDINGKVQTIVLTSGTLSPMKSFSSELGVTFTIQLEANHIIKNSQVWVGTIGSGPKGRNLCATFQNTETFEFQDEVGALLLSVCQTVSQGILCFLPSYKLLEKLKERWLSTGLWHNLELVKTVIVEPQGGEKTNFDELLQVYYDAIKYKGEKDGALLVAVCRGKVSEGLDFSDDNARAVITIGIPFPNVKDLQVELKRQYNDHHSKLRGLLPGRQWYEIQAYRALNQALGRCIRHRNDWGALILVDDRFRNNPSRYISGLSKWVRQQIQHHSTFESALESLAEFSKKHQKVLNVSIKDRTNIQDNESTLEVTSLKYSTSPYLLEAASHLSPENFVEDEAKICVQELQCPKIITKNSPLPSSIISRKEKNDPVFLEEAGKAEKIVISRSTSPTFNKQTKRVSWSSFNSLGQYFTGKIPKATPELGSSENSASSPPRFKTEKMESKTVLPFTDKCESSNLTVNTSFGSCPQSETIISSLKIDATLTRKNHSEHPLCSEEALDPDIELSLVSEEDKQSTSNRDFETEAEDESIYFTPELYDPEDTDEEKNDLAETDRGNRLANNSDCILAKDLFEIRTIKEVDSAREVKAEDCIDTKLNGILHIEESKIDDIDGNVKTTWINELELGKTHEIEIKNFKPSPSKNKGMFPGFK",stoichiometry N,[2],2
"FANCJ-H396D with a C-terminal FLAG tag (enzyme, human, UniProt Q9BX63 1-1249, looked up) MSSMWSEYTIGGVKIYFPYKAYPSQLAMMNSILRGLNSKQHCLLESPTGSGKSLALLCSALAWQQSLSGKPADEGVSEKAEVQLSCCCACHSKDFTNNDMNQGTSRHFNYPSTPPSERNGTSSTCQDSPEKTTLAAKLSAKKQASIYRDENDDFQVEKKRIRPLETTQQIRKRHCFGTEVHNLDAKVDSGKTVKLNSPLEKINSFSPQKPPGHCSRCCCSTKQGNSQESSNTIKKDHTGKSKIPKIYFGTRTHKQIAQITRELRRTAYSGVPMTILSSRDHTCVHPEVVGNFNRNEKCMELLDGKNGKSCYFYHGVHKISDQHTLQTFQGMCKAWDIEELVSLGKKLKACPYYTARELIQDADIIFCPYNYLLDAQIRESMDLNLKEQVVILDEADNIEDCARESASYSVTEVQLRFARDELDSMVNNNIRKKDHEPLRAVCCSLINWLEANAEYLVERDYESACKIWSGNEMLLTLHKMGITTATFPILQGHFSAVLQKEEKISPIYGKEEAREVPVISASTQIMLKGLFMVLDYLFRQNSRFADDYKIAIQQTYSWTNQIDISDKNGLLVLPKNKKRSRQKTAVHVLNFWCLNPAVAFSDINGKVQTIVLTSGTLSPMKSFSSELGVTFTIQLEANHIIKNSQVWVGTIGSGPKGRNLCATFQNTETFEFQDEVGALLLSVCQTVSQGILCFLPSYKLLEKLKERWLSTGLWHNLELVKTVIVEPQGGEKTNFDELLQVYYDAIKYKGEKDGALLVAVCRGKVSEGLDFSDDNARAVITIGIPFPNVKDLQVELKRQYNDHHSKLRGLLPGRQWYEIQAYRALNQALGRCIRHRNDWGALILVDDRFRNNPSRYISGLSKWVRQQIQHHSTFESALESLAEFSKKHQKVLNVSIKDRTNIQDNESTLEVTSLKYSTSPYLLEAASHLSPENFVEDEAKICVQELQCPKIITKNSPLPSSIISRKEKNDPVFLEEAGKAEKIVISRSTSPTFNKQTKRVSWSSFNSLGQYFTGKIPKATPELGSSENSASSPPRFKTEKMESKTVLPFTDKCESSNLTVNTSFGSCPQSETIISSLKIDATLTRKNHSEHPLCSEEALDPDIELSLVSEEDKQSTSNRDFETEAEDESIYFTPELYDPEDTDEEKNDLAETDRGNRLANNSDCILAKDLFEIRTIKEVDSAREVKAEDCIDTKLNGILHIEESKIDDIDGNVKTTWINELELGKTHEIEIKNFKPSPSKNKGMFPGFK",stoichiometry N,[3],2
TTTTTTTTTTTTTTTTTTTTTTCCCAGTAAAACGACGGCCAGTGC (ssDNA) [single-stranded 45-mer (DC26)],binding result,FANCJ-WT,binds
